Assay results as given in paper PMC7725785 (2020).
Where two headings read alike, the source gives them in different places. Where no end group is shown, it is not given here. [ ]: non-standard residue; d: D form.

T1: GST-tagged TRIB3 (human, UniProt Q96RU7 1-358)
T1 chain: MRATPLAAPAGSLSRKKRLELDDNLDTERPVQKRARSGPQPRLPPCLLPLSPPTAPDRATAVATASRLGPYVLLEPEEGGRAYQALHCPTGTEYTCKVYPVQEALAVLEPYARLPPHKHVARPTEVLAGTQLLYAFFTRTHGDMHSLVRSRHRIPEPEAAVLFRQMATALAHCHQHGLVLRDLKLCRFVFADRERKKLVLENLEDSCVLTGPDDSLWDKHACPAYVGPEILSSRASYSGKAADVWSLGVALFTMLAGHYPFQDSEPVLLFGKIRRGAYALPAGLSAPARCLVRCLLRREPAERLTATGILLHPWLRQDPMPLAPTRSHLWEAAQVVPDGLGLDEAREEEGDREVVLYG


Experiments:
Experiment in all cases: SPR
[1] = target: T1, GST-tagged TRIB3
[2] = target: T1, GST-tagged TRIB3
[3] = target: T2, MAX protein (SPR) (human, UniProt P61244 1-160)
T2 sequence (P61244 whole entry): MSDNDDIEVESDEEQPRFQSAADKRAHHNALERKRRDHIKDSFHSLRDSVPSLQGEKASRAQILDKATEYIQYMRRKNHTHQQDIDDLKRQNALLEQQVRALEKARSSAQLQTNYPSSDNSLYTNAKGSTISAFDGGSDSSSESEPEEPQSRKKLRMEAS

[4] = target: T2, MAX protein (SPR); remark: listed apart in the source
[5] = target: T1, GST-tagged TRIB3

Binder	Kd [1] [µM]	koff [2] [s⁻¹]	Kd [3] [µM]	koff [4] [s⁻¹]	koff [5] [s⁻¹]
[dQ][dA][dE][dE][dQ][dK][dL][dI][dS][dE][dE][dD][dL][dL][dR] [CM3 peptide]	0.707	0.000434	–	–	–
[dE][dR][dQ][dR][dR][dN][dE][dL][dK][dR][dS][dF][dF][dA][dL][dR] [CM1 peptide]	3.4	0.00531	0.897	0.0099	–
[dK][dR][dR][dE][dQ][dL][dK][dH][dK][dL][dE][dQ][dL][dR] [CM4 peptide]	–	–	12.8	0.0417	0.0769
[dK][dV][dV][dI][dL][dK][dK][dA][dT][dA][dY][dI][dL][dS][dV] [CM2 peptide]	8.17	0.0166	–	–	–
